What is called IC50 is the concentration that gives 50% inhibition. Low readings indicate higher potency, high ones lower potency.

In series [1] the target is complement factor D (fD) (UniProt P00746). Briefly: flow. The settings on record: 2'-F G, 2'-OMe A, C, U, apparent Kd of pool, SB1T, 37 C.
For series [2] the target is unchanged. Briefly: inhibition. The settings on record: non-specific control oligo.
The subject of series [3] is casein. The series can be described thus: FP filter. The settings on record: specificity control; 100 nM DNA, 20 uM casein.
The target in series [4] is complement factor D (fD) (UniProt P00746). Briefly: FP filter. The settings on record: 100 nM DNA, 5 uM fD.

Sequence of complement factor D (fD) (P00746 26-253): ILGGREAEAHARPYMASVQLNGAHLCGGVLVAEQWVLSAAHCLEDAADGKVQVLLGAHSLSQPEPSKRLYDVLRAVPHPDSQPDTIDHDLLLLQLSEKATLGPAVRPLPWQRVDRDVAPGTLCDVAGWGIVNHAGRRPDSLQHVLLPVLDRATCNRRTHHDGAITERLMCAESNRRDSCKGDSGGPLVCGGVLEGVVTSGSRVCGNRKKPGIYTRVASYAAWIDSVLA

As to “GGGAGUGUGUACGAGGCAUUAGGCCGCCNNNNNNNNNNNNNNNNNNNNNNNNNNNNNNGGCGGCUUUGAUACUUGAUCGCCCUAGAAGC [N30S selection round 7 pool]”, the Kd in series [1] (competed by anti-fD Fab AFD) amounted to 45.1 nM.

On to C8 non-specific control oligo, for which the IC50 in series [2] (alternative-pathway hemolysis) is above 160 nM. Besides, in series [2] (fD esterase assay), the activity amounted to 105 % activity.

“GTGACGACTGACATATCTGCGTTTGGGGTTGGGGCCTGGGAGTTTGGGGAGCAGAAAGGACGTAGTTGAGTCTGAGTGCT [Aptamer 5 (rank 2)]”: the binding signal in series [3] is 0.5 % bound.

In series [3], “GTGACGACTGACATATCTGCCCTATAGGGGTGTGGGCGAGGGGTGGGTGGTAGGGCGGCTCGTAGTTGAGTCTGAGTGCT [Aptamer 10 (rank 7)]” showed a binding signal of 0.2 % bound.

In turn, “GTGACGACTGACATATCTGCTATTTTGGGGCCTGGGTGTTGGGGATTGGGGACTATGTGTCGTAGTTGAGTCTGAGTGCT [Aptamer 8 (rank 5)]” gave a binding signal in series [3] of 0.3 % bound.

As to “GTGACGACTGACATATCTGCNNNNNNNNNNNNNNNNNNNNNNNNNNNNNNNNNNNNNNNNCGTAGTTGAGTCTGAGTGCT [naive N40 DNA library]”, the binding signal in series [3] came to 0.5 % bound; in series [4] (naive library background), 3.6 % bound; in series [4] (round 0 library), 0.88 % bound.

Regarding “GTGACGACTGACATATCTGCAAAAGTTAGATTGACATGGTATGCACCGTCTGAGGTTGGTCGTAGTTGAGTCTGAGTGCT [Aptamer 12 (rank 9)]”, the binding signal in series [3] was found to be 0.6 % bound.

Substance “GTGACGACTGACATATCTGCGGGCGTCTGAGCGCATGGATGACCCACCGACAGATTGCGGCGTAGTTGAGTCTGAGTGCT [Aptamer 27 (rank 24)]” registered a binding signal in series [3] of 0.6 % bound.

On to “GGGAGUGUGUACGAGGCAUUAGGCCGCCNNNNNNNNNNNNNNNNNNNNNNNNNNNNNNGGCGGCUUUGAUACUUGAUCGCCCUAGAAGC [N30S selection round 6 pool]”, for which the Kd in series [1] was 34.4 nM.

With “GTGACGACTGACATATCTGCNNNNNNNNNNNNNNNNNNNNNNNNNNNNNNNNNNNNNNNNCGTAGTTGAGTCTGAGTGCT [DNA selection round 9 pool]”, the binding signal in series [4] (round 9 pool) was 14.6 % bound.

Substance “GTGACGACTGACATATCTGCGGCGGTTGGGGTCGAAGGGCGAGGGGTGGGAGGTCGCCGTAGTTGAGTCTGAGTGCT [Aptamer 7 (rank 4)]” had a binding signal in series [3] of 0.1 % bound.

The substance “GTGACGACTGACATATCTGCTCCGAGGTTATTGGGGTTGGGGCCTGGGCGATTGGGGCCTCGTAGTTGAGTCTGAGTGCT [Aptamer 4 (rank 1)]” displayed a binding signal in series [3] of 0.5 % bound.

With “GTGACGACTGACATATCTGCTGCTTCCAGCGGTCATGATATGCACTGTCTGAAGCTCGGTCGTAGTTGAGTCTGAGTGCT [Aptamer 15 (rank 12)]”, the binding signal in series [3] was 0.2 % bound.

Take “GGGAGUGUGUACGAGGCAUUAGGCCGCCNNNNNNNNNNNNNNNNNNNNNNNNNNNNNNGGCGGCUUUGAUACUUGAUCGCCCUAGAAGC [N30S selection round 8 pool]”: in series [1] (competed by anti-fD Fab AFD), the Kd stood at 8.8 nM.
